# Laboratory results: publication PMC3516504
# Legend:
# [1] = biological target: Dansylated calmodulin, Ca2+-bound (Ca2+-dCaM) (UniProt P0DP23); experiment: other fluorescence titration; dansyl fluorescence (excitation 340 nm, intensity at 485 nm); ~80 µM Lf titrated into 1.4 µM dansylated CaM; 50 mM Tris pH 7.5, 1 mM CaCl2, 100 mM KCl (also run at 50 and 150 mM KCl); one site model, CaLigator; triplicate
# [2] = biological target: Calmodulin, Ca2+-bound (Ca2+-CaM) (UniProt P0DP23); experiment: native gel or EMSA; non-denaturing PAGE band shift; increasing amounts of Lf incubated with a constant amount of Ca2+-CaM; running buffer 0.1 mM CaCl2, samples 0.5 mM CaCl2, no urea
# [3] = biological target: Calmodulin, Ca2+-bound (Ca2+-CaM) (UniProt P0DP23); experiment: NMR titration; TROSY-HSQC of 2H/15N-labelled Ca2+-CaM titrated with unlabelled apo-Lf (titration data not shown); 20 mM Bis-Tris pH 6.8, 150 mM KCl, 4 mM CaCl2, 37 °C
Substance,Kd [1] [nM],stoichiometry N [2],stoichiometry N [3]
"Human lactoferrin, iron-saturated (Fe3+-Lf) (natural protein)",2100,1,–
"Human lactoferrin, iron-free (apo-Lf) (natural protein)",3500,1,1
